The source of these data is US20050085629A1, “Utilization of FPRL1 as a functional receptor by serum amyloid A (SAA)” (priority 1999, published 2005).

Assay [1] concerns the target T1, FPRL1 (Homo sapiens, UniProt P25090).
T1 sequence (P25090 1-351): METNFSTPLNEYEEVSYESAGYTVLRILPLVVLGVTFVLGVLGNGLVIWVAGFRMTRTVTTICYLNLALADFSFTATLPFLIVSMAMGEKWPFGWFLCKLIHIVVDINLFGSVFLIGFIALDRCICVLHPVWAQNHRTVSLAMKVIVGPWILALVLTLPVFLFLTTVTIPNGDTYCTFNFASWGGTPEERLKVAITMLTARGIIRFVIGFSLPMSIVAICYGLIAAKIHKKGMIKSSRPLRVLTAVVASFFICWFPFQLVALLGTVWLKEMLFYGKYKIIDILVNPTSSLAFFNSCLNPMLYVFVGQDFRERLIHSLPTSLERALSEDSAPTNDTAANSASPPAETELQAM
Kind of assay: Chemotaxis of FPRL1/293 cells (48-well microchemotaxis chamber). The settings on record: for agonist activity on FPRL1: concluded from chemotaxis experiments. The format is cell-based.

For assay [2], the target named is T1, FPRL1. Nature of the assay: Calcium mobilization (Fura-2) in FPRL1 transfected HEK 293 cells (FPRL1/293 cells). Format: cell-based.
Assay [3] has as its target T1, FPRL1. Nature of the assay: 125I-SAA ligand binding to FPRL1/293 cells. The method, then:
(§1) rhSAA (20: g) was radio-iodinated on tyrosine and lysine residues with the chloramine T method and the specific activity of the labeled SAA was 5.8 mCi/mg (courtesy of J. Dobbs, SAIC Frederick, NCI-FCRDC, Frederick, Md.). A constant concentration of 16 nM ^125I-SAA was incubated for 20 min at 37° C. with human monocytes or 293 cells transfected with chemoattractant receptor cDNAs (1.5-2×10^6/sample, in 200: l RPMI1640, 1% BSA, 0.05% NaN3) in the presence of increasing concentrations of unlabeled SAA. After incubation, the cells were washed once with ice-cold PBS then were layered onto a 10% sucrose/PBS cushion in Eppendorf tubes. The cells were centrifuged at 10,000 g for 1 min and the tips of the tubes containing cell pellets were cut and measured for radioactivity in a γ-counter. The binding data were analyzed and plotted with a computer-aided program LIGAND (P. Munson, Division of Computer Research and Technology, NIH, Bethesda, Md.). The level of specific binding was determined by subtraction of non-specific binding (cpm on cells in the presence of 1: M unlabeled SAA) from the total binding (cpm on cells in the absence of unlabeled SAA). Experiments were performed at least 5 times which yielded similar results.

Assay [4] concerns human monocytes. Nature of the assay: Cross-desensitization of Ca2+ mobilization in human monocytes (and neutrophils). The format is cell-based.
Assay [5] has as its system human monocytes. Kind of assay: 125I-SAA ligand binding to human monocytes. An excerpt:
GLPEKY. (SEQ. ID. No. 1). This rhSAA corresponds to SAA-1α, one of the major SAA isoforms in the serum, except for the addition of a methionine at the NH2 terminus as well as the substitution of aspartic acid for asparagine at position 60, which appears in the SAA2 isoform (reviewed in ref. Steinkasserer et al., Biochem. J., 268:187-193 (1990)). rhSAA at concentrations used in the study was negative for endotoxin as assessed by Limulus amebocyte lysate assays (sensitivity: 0.06 IU/ml. Bio Whittaker, Walkersville, Md.). High density lipoprotein (HDL) was purchased from Sigma (St. Louis, Mo.). […]
rhSAA (20: g) was radio-iodinated on tyrosine and lysine residues with the chloramine T method and the specific activity of the labeled SAA was 5.8 mCi/mg (courtesy of J. Dobbs, SAIC Frederick, NCI-FCRDC, Frederick, Md.). […] The cells were centrifuged at 10,000 g for 1 min and the tips of the tubes containing cell pellets were cut and measured for radioactivity in a γ-counter. The binding data were analyzed and plotted with a computer-aided program LIGAND (P. Munson, Division of Computer Research and Technology, NIH, Bethesda, Md.). The level of specific binding was determined by subtraction of non-specific binding (cpm on cells in the presence of 1: M unlabeled SAA) from the total binding (cpm on cells in the absence of unlabeled SAA). […]

In assay [6] the target is T2, FPR (Homo sapiens, UniProt P21462).
T2 sequence (P21462 1-350): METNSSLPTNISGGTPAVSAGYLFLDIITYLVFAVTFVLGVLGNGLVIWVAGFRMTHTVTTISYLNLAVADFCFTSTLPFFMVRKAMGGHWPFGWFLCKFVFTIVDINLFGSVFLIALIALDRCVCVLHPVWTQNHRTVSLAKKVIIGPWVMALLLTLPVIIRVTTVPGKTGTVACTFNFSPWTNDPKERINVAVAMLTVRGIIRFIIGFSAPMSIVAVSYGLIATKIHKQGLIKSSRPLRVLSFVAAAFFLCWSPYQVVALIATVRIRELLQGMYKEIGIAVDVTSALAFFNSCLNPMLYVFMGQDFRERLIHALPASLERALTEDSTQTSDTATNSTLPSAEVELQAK
Nature of the assay: Radiolabeled SAA binding to cells transfected to express FPR. The conditions noted are these: cells transfected to express the receptor. Also noted: expressed in transfected cells. The method, then: as §1

Assay [7] deals with human peripheral blood CD3+ T lymphocytes. Kind of assay: 125I-SAA binding to human peripheral blood CD3+ T lymphocytes.
The test system of another assay is neutrophils. Kind of assay: 125I-SAA ligand binding to neutrophils. Details: species or system human.
The target of assay [8] is T2, FPR. The settings on record: FPR expressing 293 cells, FIG. 2C.
A further assay deals with leukocyte. The conditions noted are these: from Badolato et al. 1994, Xu et al. 1995, Badolato et al. 1995; cited from earlier work.
Assay [9] addresses T2, FPR. Kind of assay: Chemotaxis of FPR expressing ETFR cells (48-well microchemotaxis chamber). The format is cell-based. Details: expressed in transfected cells; host or cells: ETFR cells (rat basophil leukemia cell line), gift from Drs; H. Ali and R. Snyderman. The conditions noted are these: FIG. 3B.
Setting [10] is: FPRL1/293 cells, commercially available LXA4 (Biomol).
[11] abbreviates: FPRL1/293 cells pretreated with toxin.

For `CCCCC[C@H](O)/C=C/C=C\C=C\C=C\[C@@H](O)[C@@H](O)CCCC(=O)O` [LXA4, lipoxin A4], at FPRL1 [1] (setting [10]), the induction of chemotaxis entry is reported as “did not detect a significant induction”. Further, on FPRL1 [2] (setting [10]), the “induction of Ca2+ flux” value is on record as “did not detect a significant induction”. The “inhibition of SAA binding” value at FPRL1 [3] (phagocytes or FPRL1/293 cells) is “nor did we observe inhibition”.

As for `CSCC[C@H](NC=O)C(=O)N[C@@H](CC(C)C)C(=O)N[C@@H](Cc1ccccc1)C(=O)O` [fMLP, N-formyl-methionyl-leucyl-phenylalanine], the “desensitization of SAA-induced Ca2+ mobilization” value with human monocytes [4] (fMLP 10^-3 M = 1 mM, monocytes, FIG. 1C) is recorded as “completely desensitized”; in the assay on human monocytes [4] (fMLP at 100 nM, monocytes, FIG. 1B), “partial desensitizing effect”. For the same molecule, the “attenuation of subsequent cell response (Ca2+) to SAA” value with human monocytes [4] (fMLP at relatively high concentrations (10: M and more), monocytes and neutrophils) is “able to attenuate a subsequent cell response to SAA”. Also, the “competition with 125I-SAA for binding” value is reported as “only partially competed” with human monocytes [5] (unlabeled fMLP at high concentrations (≧10: M), FIG. 4C) and “only partially competed” at FPRL1 [3] (unlabeled fMLP at high concentrations (≧10: M), FPRL1/293 cells, FIG. 4D). Besides, the “cell migration in response to stimulant” value at FPRL1 [1] (FPRL1/293 cells, wide range of concentrations, FIG. 3A) is recorded as “failed to migrate”. Also, the “agonist activity on FPRL1” value on FPRL1 [1] is listed as “partial agonist”. Besides, the “desensitization of Ca2+ flux response to SAA by prior fMLP” value at FPRL1 [2] (FPRL1/293 cells, sequential stimulation, fMLP at 100 fold excess of SAA) was “only partially desensitized”.

With pertussis toxin, in the assay with FPRL1 [1] (setting [11]), the “effect of cell pretreatment on SAA induced chemotaxis” value is on record as “inhibited”. Moreover, the “effect of cell pretreatment on SAA induced Ca2+ mobilization” value in the assay with FPRL1 [2] (setting [11]) was “inhibited”.

B1: ^125I-SAA: rhSAA radio-iodinated on tyrosine and lysine residues with the chloramine T method (protein)
chain: MRSFFSFLGEAFDGARDMWRAYSDMREANYIGSDKYFHARGNYDAAKRGPGGVWAAEAISNARENIQRFFGRGAEDSLADQAANEWGRSGKDPNHFRPAGLPEKY
Consider B1, for which the “binding to FPR receptor” value with FPR [6] is “not the FPR receptor”. For the same molecule, the Kd was determined as 0.3 µM in [7] and 0.045 µM in the assay with neutrophils. For the same molecule, in the assay on human monocytes [5] (FIG. 4B), the specific binding entry was “specifically bound”. The binding sites/cell in the assay with FPRL1 [3] (FPRL1/293 cells, FIG. 4A) came to 42000 binding sites/cell.

B2: serum amyloid A (protein, listed as Homo Sapiens)
chain: MRSFFSFLGEAFDGARDMWRAYSDMREANYIGSDKYFHARGNYDAAKRGPGGVWAAEAISNARENIQRFFGRGAEDSLADQAANEWGRSGKDPNHFRPAGLPEKY
modifications: N-terminal methionine
notes: Recombinant human SAA from Pepro Tech; corresponds to SAA-1α with added NH2-terminal methionine and aspartic acid for asparagine at position 60
Consider B2, for which the “induction of Ca2+ mobilization” value with FPR [8] was “not in FPR expressing cells”. Further, in the assay on leukocyte, the “optimal concentrations to induce leukocyte migration, adhesion and tissue infiltration” value is reported as 0.8-4 : M. Moreover, the “desensitization of Ca2+ flux induced by chemokines (MCP-1, RANTES, MCP-3, MIP-1, IL-8, SDF-1)” value with human monocytes [4] (SAA at 1: M, monocytes or neutrophils) is recorded as “failked to desensitize”. In addition, in the assay with human monocytes [4] (fMLP used at 100 nM, monocytes, FIG. 1A), the “attenuation of cell response (Ca2+) to fMLP” value was “did not attenuate the cell response”. In addition, the EC50 amounted to 0.2 µM with FPRL1 [1] (FPRL1/293 cells, read-out: EC50 of migratory response (chemotaxis)) and 0.25 µM with FPRL1 [2] (FPRL1 transfected cells (FPRL1/293 cells), FIG. 2B, read-out: EC50 for Ca2+ mobilization). In the assay with FPRL1 [1], the “agonist activity on FPRL1” value was “full agonist activity”. Also, the “desensitization of Ca2+ flux response to fMLP by prior SAA” value with FPRL1 [2] (FPRL1/293 cells, sequential stimulation, 100 fold excess of fMLP) was “able to desensitize the cell response to a 100 fold excess of fMLP”. Besides, the “cell migration in response to stimulant” value in the assay with FPR [9] is “did not migrate”.
